Source: paper PMC7759300 (The Journal of Cell Biology, 2020)

What was measured:
SAS-6 [1] = molecular target: SAS-6 (UniProt Q6UVJ0); experiment: GFP-Trap co-IP, SAS-6 blot; conditions: reference: wild type; sites S325
SAS-6 [2] = molecular target: SAS-6 (UniProt Q6UVJ0); experiment: GFP-Trap co-IP, SAS-6 blot; conditions: reference: wild type; sites S325; remark: listed apart in the source
Strep-NEDD1 = Strep-NEDD1 (human, UniProt Q8NHV4 1-660); experiment: pull-down
Chain of Strep-NEDD1 (Q8NHV4 whole entry): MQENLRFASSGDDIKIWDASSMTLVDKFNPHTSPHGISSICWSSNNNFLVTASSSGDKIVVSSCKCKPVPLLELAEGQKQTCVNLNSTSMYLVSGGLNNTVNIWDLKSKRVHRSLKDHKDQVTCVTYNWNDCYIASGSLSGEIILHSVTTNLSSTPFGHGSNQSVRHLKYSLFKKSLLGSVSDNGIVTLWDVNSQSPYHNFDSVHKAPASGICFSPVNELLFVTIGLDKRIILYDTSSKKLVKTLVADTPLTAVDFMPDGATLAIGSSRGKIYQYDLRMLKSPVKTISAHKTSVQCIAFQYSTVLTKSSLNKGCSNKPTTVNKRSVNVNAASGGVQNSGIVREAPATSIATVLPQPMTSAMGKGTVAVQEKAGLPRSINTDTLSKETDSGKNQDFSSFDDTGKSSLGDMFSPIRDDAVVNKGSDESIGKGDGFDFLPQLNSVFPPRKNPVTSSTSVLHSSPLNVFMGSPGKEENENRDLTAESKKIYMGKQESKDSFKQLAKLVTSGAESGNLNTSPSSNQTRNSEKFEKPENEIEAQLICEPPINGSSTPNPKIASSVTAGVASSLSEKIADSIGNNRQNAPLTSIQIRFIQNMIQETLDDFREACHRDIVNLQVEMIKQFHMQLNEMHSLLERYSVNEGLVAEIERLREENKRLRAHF

For NEDD1 (from UniProt Q8NHV4) S325A, the “binding against the reference” value (SAS-6 [1]) was “weaker” and the “binding against the reference” value (SAS-6 [2]) was “weaker”.

B1: GFP-SAS-6-Strep (natural protein)
chain: MSQVLFHQLVPLQVKCKDCEERRVSIRMSIELQSVSNPVHRKDLVIRLTDDTDPFFLYNLVISEEDFQSLKFQQGLLVDFLAFPQKFIDLLQQCTQEHAKEIPRFLLQLVSPAAILDNSPAFLNVVETNPFKHLTHLSLKLLPGNDVEIKKFLAGCLKCSKEEKLSLMQSLDDATKQLDFTRKTLAEKKQELDKLRNEWASHTAALTNKHSQELTNEKEKALQAQVQYQQQHEQQKKDLEILHQQNIHQLQNRLSELEAANKDLTERKYKGDSTIRELKAKLSGVEEELQRTKQEVLSLRRENSTLDVECHEKEKHVNQLQTKVAVLEQEIKDKDQLVLRTKEAFDTIQEQKVVLEENGEKNQVQLGKLEATIKSLSAELLKANEIIKKLQGDLKTLMGKLKLKNTVTIQQEKLLAEKEEKLQKEQKELQDVGQSLRIKEQEVCKLQEQLEATVKKLEESKQLLKNNEKLITWLNKELNENQLVRKQDVLGPSTTPPAHSSSNTIRSGISPNLNVVDGRLTYPTCGIGYPVSSAFAFQNTFPHSISAKNTSHPGSGTKVQFNLQFTKPNASLGDVQSGATISMPCSTDKENGENVGLESKYLKKREDSIPLRGLSQNLFSNSDHQRDGTLGALHTSSKPTALPSASSAYFPGQLPNS
B1: binds (Strep-NEDD1).
